{"source": "the nanobody polyreactivity screen of Harvey et al. (2022)", "data": [{"test": "yeast display, Sf9 membrane polyspecificity reagent, FACS + sequencing; frameworks hold sequencing errors", "procedure,_shortened": "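In a synthetic yeast display library (Saccharomyces cerevisiae BJ5465), nanobody expression was induced with galactose for 36–48 hours. FACS gates were set low and high (top ~1%) using anti-HA fluorescence for expression and streptavidin fluorescence for binding of the Sf9 membrane reagent. Each polyreactivity label is drawn from the gate of origin.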", "values": [{"sequence": "QVQLVESGGGLVQAGGSLRLSCAASGRIFHYNAMGWYRQAPGKEREFVASISGSGGRTYYADSVKGRFTISRDNAKNTVYLQMNSLKPEDTAVYYCAASYYGHRYWGQGTQVTVSS", "polyreactivity (PSR sort gate)": "low polyreactivity"}, {"sequence": "QVQLVESGGGLVQAGGSLRLSCAASGYTFGYYALGRYRPAPGKERELVAAISSGGITKYADSVKGRFTISRENAKNTVYLQMNSLKPEDTAVYYCAASWYRYRFIRYDYWGQGTQVTVSS", "polyreactivity (PSR sort gate)": "high polyreactivity"}, {"sequence": "QVQLVDSGGGLVQAGGSLLLSCAASGSTINHKDMGLYRQAPGKERELVAAISWSGGSTTYADSVKGRFTISRDNAKNTVYLQMNSLKPEDTAVYYCAADWYYWGFIFDYWGQGTQVTVSS", "polyreactivity (PSR sort gate)": "high polyreactivity"}, {"sequence": "QVQRVESGGGLVQAGGSLRLSCDASGFTFVPYAMGWYRQAPGKERELVAAISWRRGSTYYADSVKGRFTISRDNAKNTVYLQMNSLKPEDTAVYYCARKGYHYSETSAIFALYDYWGQGTQVTVSS", "polyreactivity (PSR sort gate)": "high polyreactivity"}, {"sequence": "QVQLVESGGGLVQAGGSLRLSCAASGFTFSNYAMGWYRQAPGKERELVAAITGSGGSTFYADSVKGRFTISRDNAKNTVYLQMNSLKPEDTAVYYCAAYYWSSKYDYWGQGTQVTVSS", "polyreactivity (PSR sort gate)": "high polyreactivity"}, {"sequence": "QVQLVESGGRLHQAGGSLRLICAASGSIIATYAMGWYRPAHGKERELVAAITSSDGSTNYADSVKGRFTISRDNAKNTVYLQMNCLTPEDTAVYYCAKDVWRHYLNLYDYWGQGTQVTVSS", "polyreactivity (PSR sort gate)": "low polyreactivity"}, {"sequence": "QVQRVESGGGLVQAGGSLRLSCPASGFTFSRNVMGWYRQAPGKERELVADITLSGASTYYADSVKGRFTISRDNAKNTVYLQMNSLKPEDTAVYYCAADPYHWRWGWRHDYWGQGTQVTVSS", "polyreactivity (PSR sort gate)": "low polyreactivity"}, {"sequence": "QVQLVESGGGLVQAGGSLRLSCAASGITFRSYAMGWYRQAPGKERELVAAISQSGTSTYYADSVKGRFTISRDNAKNTVYLQMNSLKPEDTAVYYCAASYYLKLRRRRYDYWGQGTQVTVSS", "polyreactivity (PSR sort gate)": "high polyreactivity"}, {"sequence": "QVQLVESGGGLVQAGGSLRLSCDGSGSIISAYTMEWYRQAPGKEREYVAAIRWSGDSTYYSDSVKGRFTISRDNAKNTVYLQMNSLKPEDTAVYYCAARDLWFPRYSSRYYYWGQGTQVTVSS", "polyreactivity (PSR sort gate)": "high polyreactivity"}, {"sequence": "QVQLVESGGGLVQAGGSLRLSCAASGSIFYSYAMGWYRQAPGKERELVARINYRGGSTYYADSVKGRFTISRDNAMNTVYLQMNSLKPEDTAVYYCAKRSYWSSNPRDYWGQGTQVTVSS", "polyreactivity (PSR sort gate)": "high polyreactivity"}, {"sequence": "QVQLVESGGGLVQAGGSLSLSCAASGFTFGTYTMGWYRQAPRKEREFVAAISFSGTTTYYADSVKGRFTISRDNAKNTVYLQMNSLKPEDTAVYYCATRSPRKGVKGHFRYYYWGQGTQVTVSS", "polyreactivity (PSR sort gate)": "high polyreactivity"}, {"sequence": "QGQLVESAGGLVQAGGSLRLSCAASGSILWHYAMGWYRQAHGKERELVAAISGSGSTIYADSVKGRFTISRDNAKNTVYLQLITLKPEDTADYYCARVHGTSESKYYYWGQGTQVTVSL", "polyreactivity (PSR sort gate)": "low polyreactivity"}, {"sequence": "QVQLVESGGGLVQAGGSLRLSCAASGRTLARTALGWYRQAPGKERELVAAISRRAVRTYYADSVKGRFTISRDNAKNTVYLQMNILKPEDTAVYYCYAASSLPGYDYWGQGTQVTVSS", "polyreactivity (PSR sort gate)": "high polyreactivity"}, {"sequence": "QVQLVESGGGLVQAGGSLRLSCAASGLTFRYNAMGWYRQAPGKERELVARISRNGGRTYYADSVKGRFTISRDNAKNTVYLQMNSLKPEDTAVYYCNVVYFVTTSPGYDYWGQGTQVTVSS", "polyreactivity (PSR sort gate)": "high polyreactivity"}, {"sequence": "QVQLVESGGGLVQAGGSLRLSCAASGLIIPRYAMGWYRQAPGKERELVAAITYTGGSTYYADSVKGRFTISRDNAKNTVYLQMNSLKPEDTSVYYCAVVVGYTDSPYSYDYWGQGTQVTVSS", "polyreactivity (PSR sort gate)": "low polyreactivity"}, {"sequence": "QVQLVESGGGLVQAGGSLRLSCAASGFTFSRNAMGWYRQAPGKERELVAAISGRTGTTYYADSVKGRFTISRDNAKNTVYLQMNSLKTVDTAVYYCAKSSGRYRSDYWGQGTQVTVSS", "polyreactivity (PSR sort gate)": "high polyreactivity"}, {"sequence": "QVQLVESGGGLVQAGGSLRLSCAASGITFSPYAMGWYRQAPGKERELVAAISSRGGSTYYADSVKGRFTISRDNAKNTVYLQMNSLKPEDTAVYYCNALTFVRYLFHYTYWGQGTQVTVSS", "polyreactivity (PSR sort gate)": "high polyreactivity"}, {"sequence": "QVQLVESGGGLVQAGGSLRLSCAASGSTFRTYSMGWYRQAPGKEREWVASITSSGASTYYADSVKGRFTISRDNAKNTVYLQMNSLKPEDTAVYYCAKGYPWYYRYKYDSWGQGTQVTVSS", "polyreactivity (PSR sort gate)": "high polyreactivity"}, {"sequence": "QVQLVESGGGLVQAGGSLRLSCAASGRTLARNAMGWYRQAPGKERELVASINGRTTRTYYADSVKGRFTISRDNAKNTVYFQMNSLKPEDPAVYYCAADPPGYVYGKRYYWGQGTQVTVSS", "polyreactivity (PSR sort gate)": "high polyreactivity"}, {"sequence": "QVQLVESGGGLVQAGGSLRLSCAASGSTYYYYAMGWYRQAPGKERELVASIRSGGNTNYADSVKGRFTISRDNAKNTVYLQMKSLIPEDTAVYYCASRYMGSYSGGNYWGQVTQVTVSS", "polyreactivity (PSR sort gate)": "low polyreactivity"}, {"sequence": "QVQLVESGGGLVQAGGSLRLSCAASGFTFGQYVMGWYRQAPGKERELVAAISFSGGSTYYADSVKGRFTISRDNAKNTVSVQMTSLKPEDTAVYYCAADVNVLYLLRFSHRSNYGYWGQGTQVTVSS", "polyreactivity (PSR sort gate)": "high polyreactivity"}, {"sequence": "QVQLVESGGGIVQAGGRLRLSCAASGSILAGYALGWYRQSPGKERELVAAISESGGNTYYADSVKGRFTISRDNAKNTVYLQMNSLKPEDTAVYYCAADLGYGPLRELEYWGQGTQVTVSS", "polyreactivity (PSR sort gate)": "low polyreactivity"}, {"sequence": "QVQLVESGGGLVQAGGSLRLSCAASGFIQDLYVMGWYRQAPGKERELVAAISSVGSTYADSVKGRFTISRDNAKNTVYLQMNSLKPEDTAVYYCAKDGTDYDYNYWGQGTQVTVSS", "polyreactivity (PSR sort gate)": "low polyreactivity"}, {"sequence": "QVQLEESGRGLVQAGGSLRLSCAASVSTCCENAMGWYRQAPGKERELVAAISWGGGSKYYADSVKGRFTISRDNAMNTVYLQMNSLKQEDTAVYYCNADVFDDYGYFESDYWGQGTQVTVSS", "polyreactivity (PSR sort gate)": "low polyreactivity"}, {"sequence": "QVQLVESGGGLVQAGGSLRLSCAASGLIFVINAMGWYRQAPGKERELVATISSGVSTNYADSVKGRFTISRDNAKNTVYLQMNSLKPEDTAVYYCKKGQTVSRGYRLYERYDYWGQGTQVTVSS", "polyreactivity (PSR sort gate)": "low polyreactivity"}, {"sequence": "QVQLVESGGGLVQAGGSLRLSCAASGRTFAGYAMGWYRQAPGKERELVAAISTRGGSTYYADSVKGRFTISRDNAKNTVYLQMNSLKPEDTAVYYCAATKPKFYQFDYWGQGTQVTVSS", "polyreactivity (PSR sort gate)": "high polyreactivity"}, {"sequence": "HVQLVESGGGLVQAGGSLRLSCAASGSIFGLYAMGWSRQAPGKEWELVAAITRGDSTNYADSVKGRFTISRDNAKNTVYLQMNSLKPEDTAVYYCNAVYAGWRGGNYWGQGTQVTVSS", "polyreactivity (PSR sort gate)": "low polyreactivity"}, {"sequence": "QVQLVESGGGLVQAGCSLRLSCAASGSVFTVYSMGWYRQAPGKERELVAAITRNGGRTYYADSVKVRFTISRDNSKNTVYLQMKILKPEDTAVYSCAATGLYSRLDYWGQGTQVTVSS", "polyreactivity (PSR sort gate)": "high polyreactivity"}, {"sequence": "QVQLVESGGGLVQAGGSLRLSCAASGFTFRFYAMGWYRQAPGKERELVAAISRRGGTTYYADSVKGRFTISRDNAKNTVYLQMNSLKPEDTAVYYCNKDWTYEHGYWGQGTQVTVSS", "polyreactivity (PSR sort gate)": "high polyreactivity"}, {"sequence": "QVQVVESGGGIVHAGGSLRLSCAASGFIFLVNGMVWYRQAPGKERELVAAISFDGGSTYADSVKGRFTISRDNAKNTVYLLMTSLKPEDTAVFYCATDVRGVDGEDYSWGQGTQVTVSS", "polyreactivity (PSR sort gate)": "low polyreactivity"}, {"sequence": "QVQLVESAGGLVQAGGSLRLSCAASGFIFYSNAMGWYRQAPGKERELVAGISRGGSTYYADSVKGRFTISRDNAKNTVYLQMNSLKPEDTAVYYCAASPSSYGRYGYWGQGTQVTVSS", "polyreactivity (PSR sort gate)": "low polyreactivity"}, {"sequence": "QVQLVESGGGLVQAGGSLRLSCAASGFTFRWYAMGWYRQAPGKETELVAAISRDGSTNYADSVKGRFTISRDNAKNTVYLQMNSLKPEDTAFYYCATDSYPWGRSTGWRKQKGYYWGQGTKVTVSS", "polyreactivity (PSR sort gate)": "high polyreactivity"}, {"sequence": "QVQLVESGGGLVQAGGSLRLSCAASGSIFTVYAMGWYRPAPGTERELVARISSGAGTTYADSVKGRFTISRDNAKNTVYVQMKSLTPEDTAVYYCAAYTWDTDHYWYGYVPYDYWGQGTQVSVSS", "polyreactivity (PSR sort gate)": "low polyreactivity"}, {"sequence": "QVQLVESGGGLVQAGGSLRLSCAASGFIFRRYAMGWYRQAPGKERELVAAITRSGGSTYYADSVKGRFTISRDTSKNTVYLQMNSLNPEDTAVYYCATKSSGPVLGYGYDYWGQGTQVTVSS", "polyreactivity (PSR sort gate)": "high polyreactivity"}, {"sequence": "QVQLVESGGGLVQAGGSLRLSCAASGFTFRTYAMGWYRQAPGKERELVAAINTGGGTNYADSVKGRFTISRDNAKNTVYLQMNSLKPEDTAVYFCNAVHYYYYYWYSLYDSWGKGTQVTVSS", "polyreactivity (PSR sort gate)": "high polyreactivity"}, {"sequence": "QVQLVESGGGLVQAGGSLRLSCAASGRIFTTNAMGWYRQAPGKERELVASISKSGGSTYYADSVKGRFTISRDTAKNTVYLQMNSLKPEDTAVYYCAASSYSTSYIRGDYWGQGTQVTVSS", "polyreactivity (PSR sort gate)": "low polyreactivity"}, {"sequence": "QAQLVDSGGGLVQEGGSLRLSCAASGLIFDANVMGSYRQAPGKERELVAAISWSGGRTYYADSVKGRFTISRDNAKNTVFFQMNSMNPEVTAVYYCAADTWPDMHDYWGQGTQVTVSS", "polyreactivity (PSR sort gate)": "low polyreactivity"}, {"sequence": "QVQLVESGGCLVQAGGSLRLSCAASGYTFLYNAMGWYRQAPGKERELVATNTRGGSTNYADSVKGRFTISRDNAKNTVYLQMYSLKPEDTAVYYCNKEAAPLGFVPSYYGRDYWGHGTQVTVSS", "polyreactivity (PSR sort gate)": "low polyreactivity"}, {"sequence": "QVQLVESGGCLVQAGGRLRLSCAASGRIFHDNGMGWYRQAPGKERELVAAISRGGSTYYADSVKGRFTISRDNAKNTVYLQMNSRKPEDTAVYYCNVDSFRYRHTGYCDTRYGYWGQGTQVTVSS", "polyreactivity (PSR sort gate)": "high polyreactivity"}, {"sequence": "QVQLVESGGGLDQAGGSLRLSCAASGFTFASYAMGWYRQAPGKERELLAAITRSGGSTYYADSVKGRFTISRDNAKNTVYLHLTSLKPEDTAVYYCATDDEQHYYLLEYYYWGQGTQVTVSS", "polyreactivity (PSR sort gate)": "low polyreactivity"}, {"sequence": "QVQLVESGGGLVQAGGSLRLSSAASGFTFFYYAMGWYRQAPGKERELVAAISASGGSTSYADSVKGRFTISRDNAKNTVYLQMNSLKPEDTAVYYCAARVYSVRSGYYYWGQGTQVTVSS", "polyreactivity (PSR sort gate)": "high polyreactivity"}, {"sequence": "QVQLVESGGGLVQAGGSLRLSSPASGYIISTYVMGWYRQAPGKERDLVAAITRSGGSTYYADSVKGRFTISRDNAKNNVYLQMNSLKPEDTAVYYCNAYLYLYGLSGRYDYWGQGTQVTVSS", "polyreactivity (PSR sort gate)": "high polyreactivity"}, {"sequence": "QVQLVESGGGLVQAGGSLRLSCAASGSIMNNYAMGWYRQAPGKERELVAAISSSGGTNYADSVKGRFTISRDNAKNTVYLLMNSLKPEDTAVYYCNADVMDGGYDYWGQGTQVTVSS", "polyreactivity (PSR sort gate)": "low polyreactivity"}]}]}
